According to US20230094463A1 (TRUEBINDING, published 2023):
Substitutions are numbered along the chain they refer to. In names and notes the source's numbering stands.

T1: Gal3 Peptide 1 (ADNFSLHDALSGSGNPNPQG) (human)
T1 peptide: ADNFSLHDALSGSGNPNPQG

T2: Gal3 Peptide 7 (AYPGAPGAYPGAPAPGVYPG) (human)
T2 peptide: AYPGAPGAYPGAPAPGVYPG

B1: 19B5.2E6 (antibody, V domains shown)
VH: QIQLVQSGPELKKPGETVKISCKASGYTFTTYAMSWVKQAPGKGLKWMGWINTYSGVPTYADDLKGRFAFSLETSASTAYLQINNLKNEDTATYFCARGPYAMDYWGQGTSVTVSS
VL: DIQMTQTTSSLSASLGDRVTISCSASQGINNYLNWYQQKPDGTVKLLIYYASSLHSGVPSRFSGSGSGTDYSLTISNLEPEDIATYYCQQYSQVPYTFGSGTKLEIK
B2: IMT001 (TB001) (antibody, V domains shown)
VH: QVQLVQSGSELKKPGASVKVSCKASGYTFTNYGMNWVRQAPGQGLKWMGWINTNTGEPTYVEEFTGRFVFSLETSVSTAYLQISSLKAEDTAVYFCAPYDNFFAYWGQGTTVTVSS
VL: DIVLTQSPLSLPVTPGEPASISCRSSKSLLYKDGKTYLNWFLQKPGQSPQLLIYLMSTHASGVPDRFSGSGSGTDFTLKISRVEAEDVGVYYCQQLVDYPLTFGGGTKLEIK
notes: anti-Gal3 antibody; also called IMT001-4
B3: F846C.1F5 (antibody, V domains shown)
VH: QIQLVQSGPELKKPGETVKISCKASGYTFTNYGMNWVKQAPGKGLKWMGWINTYTGEPSYADDFKGRFAFSLETSASTAYLQINNLKNEDMATYFCARWGGYDGDYYAMDYWGQGTSVTVSS
VL: NIMMTQSPSSLAVSAGEKVTMSCKSSQSVLYSSNQKNYLAWYQQKPGQSPKLLIYWASTRESGVPDRFTGSGSGTDFTLTISSVQPEDLAVYYCHQYLSSLTFGAGTKLELK
notes: also called 846.1F5
B4: 24D12.2H9 (antibody, V domains shown)
VH: QVQLKQSGPGLVQPSQSLSITCTVSGFSLTSYGVHWVRQAPGKGLEWLGVIWSGGSTDYNAAFMSRLSISKDNSKSQVFFKMNSLQADDTAIYYCAKSPDGYDVAWFGYWGQGTLVTVSA
VL: DIVMTQSHKFMSTSVGDRVSITCKASQDVRTAVAWYQQKPGQSPKLLIYWASTRHTGVPDRFTGSGSGTDFTLTLSNVQSEDLADYFCQQYSSYPWTFGGGTKLEIK
B5: 2D10.2B2 (antibody, V domains shown)
VH: QVQLQQSGPELVKPGASVKISCKASGYTFTDYYINWVKQRPGQGLEWIGWIYPGSNDTKYNEKFKGKATLTVDTSSSTAYMQLGSLTSEDSAVYFCANYFGCSGWFFDVWGTGTTVTVSS
VL: DIVMTQAAFSNPVTLGTSASISCRSSKSLLHSDGITYLYWYLQRPGQSPQLLIYRMSNLASGVPDRFSGSGSGTDFTLRISRVEAEDVGVYYCAQMIEFPLTFGAGTILELK
B6: 4A11.2B5 (antibody, V domains shown)
VH: QVQLQQSGPELVKPGASVKISCKASGYSFTNYYIHWVKQRPGQGLEWIGWIYPGSGNTNYNEKFKGKATLTADTSSSTTNMQLSSLTSEDSAVYYCSTAPGGFDVWGSGTTVTVSS
VL: B5 VL with I97L, I108K
B7: 13A12.2E5 (antibody, V domains shown)
VH: QIQLVQSGPELKKPGETVKISCKTSGYKFKTYVMSWVKQAPGKALKWMGWINTYSGVPTYADDFKGRFAFSLETSASTAYLEIINLKNEDTATYFCARDGNYGDPMDYWGQGTSVTVSS
VL: DVVMTQTPLTLSVAIGQPASISCKSSQSLLYTNGKTYLNWLLQRPGQSPKRLIYLLSKLDSGVPDRFSASGSGTDFTLKISRVEAEDLGVYYCLQSTHFPLTFGAGTKLEMK
B8: IMT006 (TB006) (antibody, V domains shown)
VH: QVQLVQSGAEVKKPGASVKVSCKASGYSFTNYYMHWVRQAPGQRLEWMGWIYPGSGNTNYNEKFQGRVTITADTSASTAYMELSSLRSEDTAVYYCSTAPGGFDVWGQGTTVTVSS
VL: DIVMTQTPLSLSVTPGQPASISCKSSKSLLHSDGITYLYWYLQKPGQSPQLLIYRMSNLASGVPDRFSGSGSGTDFTLKISRVEAEDVGVYYCAQMLEFPLTFGQGTKLEIK
notes: anti-Gal3 antibody
B9: 15G7.2A7 (antibody, V domains shown)
VH: EVQLQQSGPELVKPGASVKISCKASGYTFTDYYMNWVKQSHGKSLEWIGDINPNNGGTNYNQKFKGKATLTVDKSSSTAYMELRSLTSEDSAVYYCTSGYGFPYWGQGTLVTVSA
VL: DIQMNQSPSSLSASLGDTISITCRASQNINIWLSWYQQKPGNIPQLLIYKASNLHTGVPSRFSGSGSGTDFTLTISSLQPEDIATYYCLQGQSYPLTFGAGTKLVMK
B10: 14H10.2C9 (antibody, V domains shown)
VH: QIQLVQSGPELKKPGETVKISCKASGYTFTTYGMGWVKQAPGKDLKWMGWINTYSGVPTYADDFKGRFAFSLETSASTAYLQISNLKNEDTATYFCSTPYEYDGAYWGQGTLVTVSA
VL: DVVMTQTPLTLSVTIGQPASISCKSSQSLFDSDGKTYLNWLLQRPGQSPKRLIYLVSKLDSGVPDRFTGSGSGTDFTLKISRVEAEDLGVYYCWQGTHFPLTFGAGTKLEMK
B11: 19D9.2E5 (antibody, V domains shown)
VH: B10 VH with D44G, A76T, S84N, T91M, S97A
VL: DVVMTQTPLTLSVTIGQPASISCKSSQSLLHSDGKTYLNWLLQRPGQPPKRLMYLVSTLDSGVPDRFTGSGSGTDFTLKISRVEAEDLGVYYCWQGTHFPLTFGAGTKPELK
B12: 12G5.D7 (antibody, V domains shown)
VH: QVQLKQSGAELVRPGASVKLSCKASGYTFTDYYINWVKQRPGQGLEWIARIYPGTGNTDYNEKFKGRATLTAEKSSSTAYMQLSSLTSEDSAVYFCARFAYYYGSGGYFDYWGHGTTLTVSS
VL: DILMTQSPSSMSVSLGDTVSITCHASQGINSNMGWLQQKPGKSFKGLIYHATNLEDGVPSRFSGSGSGADYSLTISSLESEDFADYYCVQYAQFPPTFGSGTKLEIK

Tests used:
[1] = target: T1, Gal3 Peptide 1 (ADNFSLHDALSGSGNPNPQG); experiment: peptide ELISA (peptide coated; antibody hIgG4 [S228P], 5 µg/mL)
[2] = target: T2, Gal3 Peptide 7 (AYPGAPGAYPGAPAPGVYPG); experiment: as above
[3] = target: T3, Human GAL3 protein (TrueBinding, QCB200349 / QCB200352; R&D Systems, 8259-GA) (human, UniProt P17931 2-250); experiment: blocking ELISA (GAL3 coated; antibody + biotinylated ITGa3)
T3 construct: also called human galectin-3

[4] = target: T4, Human Galectin-3 protein (Acro Biosystems, GA3-H5129) (human, UniProt P17931 2-250); experiment: ELISA, blocking of INSR binding to coated Gal3
T4 construct: Bought protein; also called Gal3-ECD-His; Gal3-His; not shown: linker-spaced 6-histidine tag

[5] = target: T3, Human GAL3 protein (TrueBinding, …); experiment: blocking ELISA (GAL3 coated; antibody + biotinylated ITGb3)
[6] = target: T4, Human Galectin-3 protein (Acro …); experiment: SPR (Biacore T200), antibody captured, Galectin-3 as analyte
[7] = target: T3, Human GAL3 protein (TrueBinding, …); experiment: blocking ELISA (GAL3 coated; antibody + biotinylated ITGaV)
[8] = target: T4, Human Galectin-3 protein (Acro …); experiment: blocking ELISA (Gal3 coated; antibody 3 µg/mL + INSR)
[9] = target: T4, Human Galectin-3 protein (Acro …); experiment: ELISA, blocking of INSR binding to coated Gal3; remark: listed apart in the source
[10] = target: T3, Human GAL3 protein (TrueBinding, …); experiment: blocking ELISA (GAL3 coated; antibody + biotinylated ITGb1)
[11] = target: T4, Human Galectin-3 protein (Acro …); experiment: SPR (Biacore T200; antibody captured via anti-Fc, Galectin-3 analyte, 1:1 fit)

| Binder | binding result [1] | binding result [2] | percent blockade of GAL3-ITGa3 interaction [3] [%] | Gal3-INSR Blocking @ 3 µg/mL [4] [%] | percent blockade of GAL3-ITGb3 interaction [5] [%] | Kd [6] [nM] | percent blockade of GAL3-ITGaV interaction [7] [%] | Gal3-INSR binding remaining, % of unblocked sample [8] [%] | IC50 (read off the curve) [9] [mg/L] | percent blockade of GAL3-ITGb1 interaction [10] [%] | reduction of Gal3-INSR binding (%) [8] [%] | Kd [11] [nM] |
| --- | --- | --- | --- | --- | --- | --- | --- | --- | --- | --- | --- | --- |
| B1 | binds | binds | > 90 | 100 | > 90 | < 1 | > 90 | < 5 |  |  |  |  |
| B2 |  |  | > 90 | 100 | > 90 | 6.09 | > 90 |  | ~0.8 | > 90 |  |  |
| B3 |  |  | > 90 |  | > 90 |  | > 90 |  |  | > 90 |  |  |
| B4 |  |  |  | 22 |  | 4.13 |  |  |  |  | ≤ 30 |  |
| B5 |  |  | > 90 | 100 | > 90 | 0.753 | > 90 | < 5 | ~0.5 |  |  |  |
| B6 |  |  |  | 100 |  | 5.22 |  | < 5 |  |  |  |  |
| B7 |  |  | > 90 | 97 | > 90 | 8.2 |  | < 5 |  |  |  |  |
| B8 |  |  | > 90 | 100 | > 90 | 16.5 | > 90 |  | ~0.7 | > 90 |  |  |
| B9 |  |  |  | 100 |  | 11.3 |  |  |  |  |  | 27.8 |
| B10 |  |  | > 90 | 100 | > 90 | 0.562 | > 90 | < 5 |  |  |  |  |
| B11 |  |  |  | 100 |  | < 1 |  | < 5 |  |  |  |  |
| B12 |  |  | < 35 | 27 | < 10 | 1.9 | < 30 |  |  |  | ≤ 30 |  |
